From the nanobody polyreactivity screen of Harvey et al. (2022)

Test: yeast display, Sf9 membrane polyspecificity reagent, FACS + sequencing; frameworks hold sequencing errors
In short: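 After 36–48 hours of galactose induction, yeast (Saccharomyces cerevisiae BJ5465) displaying a synthetic nanobody library were stained at 4 °C for 1 hour with 10% biotinylated, detergent-solubilized Sf9 membrane reagent. Streptavidin microbeads enriched the stained cells before FACS sorting into low and high (top ~1%) gates on anti-HA and streptavidin fluorescence. Each clone's polyreactivity label reflects its gate of origin.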

| Sequence | polyreactivity (PSR sort gate) |
| --- | --- |
| QVQLVESGGGLVQAGGSLRLSCAASGSTFARYAMGWYRQAPGKERELVASITQSSGSTYYADSVKGRFTISRDNAKSTVYLQMNSLKPEDTAVYYCAKVISYGPVPDRYDYWGQGTQVTVSS | high polyreactivity |
| QVQLVESGGGLVQAGGSLRLSCAASGRILAYYAMAWYRQAPGKERELVAAITSGGGSTYYADSVKGRFTISRDNAKNTVYLQMNSLKPEDTAVYYCAADAYVSSQPMDYWGQGSQVTVSS | high polyreactivity |
| QVQLVESGGGLVQAGGSLRLSCAASGFIFRYYAMGWSRQAPGKERELVAAITSGGRTSYADSVKGRFTISRDNAKNTVYLQMNSLKPEDTAVYYCAKDSYRQRYGSMEYWGQGTQVTVSS | high polyreactivity |
| QVQLVESGGGLVQAGGSLRLSCAASGRISVFYAMGWYRQAPGKERELVAAITRSGTTKYADSVKGRFTISRDNAKNTVYLQMNSLKPEDTAVYYCAADSSRFFYGVYNYRQYGYWGQGSQVTVSS | high polyreactivity |
| QVQLVESGGGLVQAGGSLRLSCAASGRIFSPNAMGWYRQAPGKERELVAAITRGGSTNYADSVKGRFTISRDNAKNTVYLQMNSLKPEDTAVYYCAAQLAKTISGRGYNSWGQGTQVTVSS | low polyreactivity |
| QVQLVESGGGLVQAGGSLRLSCAASARILRRNAMGWYRQAPGKEREFVAAITWRGGSTYYADSVKGRFTISRDNAKNTVYLQMNSLKPEDTAVYYCAADTYSVEYVLPYYYWGQGTQVTVSS | high polyreactivity |
| QVQLVESGGGLVQAGGSLRLSCAASGNIFYSYAMGWYRQAPGKARELVATIRSGGSTYYADSVKGRFTISRDKAKNTVYLQMNSLKPEDTAVYYCAAPYPYRYFEYYWGQGTQVNVSS | low polyreactivity |
| QVQLVESGGGLVQAGGSLRLSCAASGSTFRRNVMGWYRQAPGKEREFVAAISYRTGSTYYADSVKGRFTISRDNAKNTVYLQMNSLKPEDTAVYYCAASSQWVGYYYWGQGTQVTVSS | high polyreactivity |
| KVQLVESGGGLVQAGASLRLSCAASGSIFATYAMGWYREEPGKERELVAAITSSDGSTNYADSVKGRFTISRDYAKNTVYLQMNSLKPEDTAVYYCATVSPDRTDSDSGFDAGYDYWGQGTQVTLSS | low polyreactivity |
| QVQLVESGGGLVQAGGSLRLSCAASGRIFYNYSMGWYRQAPGKEREVVAAISGSGGSTYYADSVKGRFTISRDNAKNTVYLQMNSLKPEDTAVYYGSTSGGQYYSRNFEYWGQGTQVTVSS | low polyreactivity |
| QVQLVESGGGLVQAGGSLRLSCAASGIISAGYAMGWYRQAPGKERELVAAISTSGTSTYYADSVKGRFTISRDNAKNTVYLQMNSLKPEDTAVYYCAYTYYYGVGYYYWGQGTQVTVSS | low polyreactivity |
| QVQLVESCGGLVQAGGSLRLSCAASGFIFYYYAMGWYRQAPGKERELVAGITRGGSTYYADSVKGRFTISRDNAKNTVYLQMNSLKPEDTAVYYCASTYYLSYTSGTFGKFGYWGQGTQVTVSS | high polyreactivity |
| QVQLVESGGGIGQAGGSLRLSCAASGFTFSRYTMAWFRRAPGKERELVAAINRRGGSTYYADSVKGRFTISRDNAKNTVYLQMNCEKPEDTAVYYCAATYTVRSGNGIANDYWGQGTQVTVSS | high polyreactivity |
| QVQLVESGGGLVQAGGSLRLSCAASGSILGYYVMGWYRQAPGKERELVAAISWSSGSTYYADSVKGRFTISRDNAKNTVYLQLNSLKPEDTAVYYCNASNVYFWFVTLEFDSWGQGTQVTVSS | low polyreactivity |
| QVQLVESGGGLVQAGGSLRLSCAASGSIFWYYVMGWYRQAPGKERELVAAITFSGAGTYYADSVKGRFTISRDNAKNTVYLQMNSLKPEDTAVYYCAARWLGHFYPFFLQGLSGFDYWGQGTQVTVSS | low polyreactivity |
| QVQLVESGGGLVQAGGSLRLSCAASGSTFGTNAMGWYRQAPGKEREFVASIRKSGGSTYYADSVKGRFTISRDNSKNTVYLQMNSLKPEDTAVYYCAAVYRRYLGGGYDYWGQGTQVTVSS | high polyreactivity |
| QVQLVESGGGLVQAGGSLRLSCAASGRTFYRYAMGWYRQAAGTERELVAAISRSGGSTYYADSVKGRFTISRDHAKYTVYLQMNSLKPQDTAVYYCAAGYDGYKQGGGGYWGQGTQVTVSS | high polyreactivity |
| QVQLVESGGGLVQAGGSLRLSCAASGITLSRNAMGWYRQAPGKERELVAAITWRTDRTYYADSVKGRFTISRDNAKNTVYLQMNSLKPEDTAVYYCAARTTVSSARYDYWGQGTQVTVSS | high polyreactivity |
| QVQLVESGGGLVQAGGSLRLSCAASGRIVVGYVMGWYRQSPGKERELVADIRSRGDSTYYADSVKGRFTISRDNAKNTVYLQMNSLKPEDTAVYYCNVLGYSYWGQGTQVTVSS | high polyreactivity |
| QVQLVESGGGLVQAGGSLRLSCAASGSTLYRYTMGWYRQAPGKERELVAAISSGGNTYYADSVKGRFTISRDNAKNTVYLQMNSLKPEDTAVYYCAAEDSVYIPYYDAFDYWGQGTQVTVSS | low polyreactivity |
| QVQLVESGGGLVQAGGSLRLSCAASGFIFYSNAMGWYRQAPGKDRELVASITGDGGTTYYADSVKGRFTISRDKAKNTVYLQMNSLKPEATAVYYCAKDYIYRGYYTDFRYEDYDYWGPGTQVTVSS | low polyreactivity |
| QVQLVESGGGLVQAGGSLRLSCAASGSIFVTNAMGWYRQAPGKERELVAAIRWSGDSTYYADSVKGRFTISRDNAKNTVYLQMKSLKPEDTAVYYCDAESFRYIRLNYKYGDYYWGHGTQVTVSS | high polyreactivity |

| Sequence | polyreactivity (PSR sort gate) |
| --- | --- |
| QVQHVESGGGLVQAGGSLRLSCAASGNIFGLNAMGWYRQAPGKERELVAAISKSGGSTFYADSVKGRFTISRDNAKNTVYLQMNSLKPEDTAVYYCAADHRYHWAYPRGYYYWGQGTQVTVSS | high polyreactivity |
| QVQRVESGGGIVQAGGSLRLSCAASGSTFSYYAMGWYRQAPGKERELVAAISSSGGNTYYADSVKGRFTISRDNAKNTVYLQMNSLKPEDTAVYYCAKLYRYIYGGMDYWGQGTQVTVSS | high polyreactivity |
| QVQLVESGGGLVQAGGSLRLSCAASGRIFYYNAMGWSRQAPGKEWELVAAITYSGTSTYYAASVKGRFTISRDNAKYTVYLQMNSLKPEDTAVDYCNAEGDNRRDRYDYWGQGTQVTVSS | low polyreactivity |
| QVQLVESGGGLVQAGGSLRLSCAASGIIFKYYAMGWYRQAPGKERELVAAISWTGDSTYADSVKGRFTISRDNAKNTVYLQMNSLKPEDTAVYYCAVAFRRVRSLGEGYWGQGTQVTVSS | low polyreactivity |
| QVQLVESGGGLVQAGGSLRLSCAASGRIFERYAMGWYRQAPGKERELVAGISISGGGTYYADSVKGRFTISRDNAKNTVYLEMNSLKPEDTAVYYCAATFPREDYGYWGQGTQVTVSS | low polyreactivity |
| QVQLVESGGGLVQAGGSLRLSCAASGLILRRYAMGWYRQAPGKDRELVAAISWSGGRTYYADSVKGRFTISRDNAKNTVYLQMISLKPEDTAVYYCAAGYIYWYYSYDYWGQGTQGTVSS | high polyreactivity |
| QVQLVESGGGLVQAGGSLRLSCAASGFIFTANAMGWYRQAPGKESELVANINRSGDSTYYADSVKGRFTISRDNAKNTVYLQMNSLKPEDTAVYYCNKDWHSQVFSAYNSYDYWGQGTQVTVSS | low polyreactivity |
| QVQLVESGGGLVQAGGSLRLSCAASGFIFLYNTMGWYRQAPGKERELVAAISGGGGSTSYADSVKGRFTISRDNAKNTVYLQMNSLKPEDTAVYYCAKKSTYYKWSRMYWGQGTQVTVSS | high polyreactivity |
| QVQLVESGGGLVQAGRRLRLSCAASGRIFSRNAMGWYRQAPGKERELVAVITKRGGSTYYADSVKGRFTISRDNAKNTVYLQMNSLKPEDSAVYYCNRRPYTGLGRLDYWGQGTQVTVSS | high polyreactivity |
| QVQLVESGGGLVQAGGSLRLSCAASGNIIWGNAIGWYRQAPGKERELVAAISRRSGSTYYADSVKGRFTISRDIAKNTVYLQMNSLKPEDTAVYYCNTAGRVGTYDYWGQGTQVTVSS | high polyreactivity |
| QVQLVESGGGLVQAGGSLRLSCAASGSTFSRDAMRWYRQPPGKERELVAAISSVGDTYYADSVKGRFTISRDNAKNTVYLQMNSLKPEDTAVYYCGATFVVKGTRFGYWGQGTQVTVSS | high polyreactivity |
| QVQLVESGGGLVQAGGSLRLSCAASGFTFSNYDMGWYRQAPGKEREFVADIDWSGGTTYYADSVKGRFTISRDNAKNTVYLQMNSLKPEDTAVYYCATDGYRALSYKYDYWGQGTQVTVSS | low polyreactivity |
| QVQLVETCGGLVHAGGSLRLSCAASGSTFVDNSMGRYRQAPGKERELGADISWSGGSTYYADSVKGRFTNSRDNAKTTVYLQMNSLKPQDTAVYYCAAYRNDYGYWTYVYYTDDYDYWGQGTQVTVSS | low polyreactivity |
| QVQLEESGGSLVQAAGSLRLSCAASGSIFSPYAMGWYRQAPGKERELVAAITWRGGTFYADSVKGRFTISRDNAKNTVDLQMNSLKPEDTAVYYCNARFGQTVKGTYGRYYYWGQGTHVTVSS | high polyreactivity |
| QVQLVESGGGLVQAGRSLCLSCAASGSIFINAMGWYRQAPGKERELVATIRWRGGTTYYADSVKGRFTISRDNAKNTVDLQMNSLKPEATAVYYCAADRSYYPDTRTTYGYNYWGQGTQVTVSS | low polyreactivity |
| QVQLVESGGGLVQAGGSLRLSCASSGSTFSYYAMGWYRQATGKERELVAGITTNGGRTFYADSVKGRFTISRDNAKNTVYLQMNSLKPEDTAVYYCNARHGRHRRTRSYYWGQGTQVTVSS | high polyreactivity |
| QVQLVESGGGLFQAGGSLRLSCAASGRIFGGYAMGWYRQAPGTERELVAAIDWDGGSTYYADSVKGRFTISRDNEKNTVYLQMNSLKPEDTAVYYSNAVKWTWWSSSGDYDYWGQGTQVTVSS | high polyreactivity |
| QVQLVESGGGLVQAGGRLRLSCAASGSIFSRYAMGWYRQAPGKERELVAAITSRGSGTNYADSVKGRFTISRDNAKNTVYLQMNSLKPEDTAVYYCNAARLPRLGWPTPYLYDYWGQGTQVTVSS | high polyreactivity |
| QVQLVESGGGLVQAGGSLRLSCAASGSTFRYYAMGWYRQAPGKERELVAAITQSGGITYYADSVKGRFTISRDNAKNTVYLQMNSLKPEDTAVYYCAKRYYVDYDYWGQGTQVTVSS | low polyreactivity |
| QVQLVESGGGLVQAGGSLRLSCAASGRIFNPYAMGWYRQAPWKERELVAAIRRSGVDTYYADSVKGRFTNSRDNAKNTVYFQMNSLKPEDTAVYYCNAVYKRIGYSEFDYWGQGTQVTVSS | low polyreactivity |
| QVHLVESGGGLVQAGGSLRLSCAASGYTFDSYAMGWYRQAPGKERELVAAISSGGRTKYADSVKGRFTISRDNAKNTVYLQMNSLKPEDTAFYYCAARRTFGVGILVGYWGQGTQVTVSS | high polyreactivity |
